# Test results published in article PMC7603008 (Materials, 2020).
# B1: rCPNE7: recombinant CPNE7 protein, a dental epithelium-derived calcium-dependent phospholipid-binding protein (Origene) (protein, UniProt Q9UBL6 1-633, looked up)
# Copine-7: MSAGSERGAAATPGGLPAPCASKVELRLSCRHLLDRDPLTKSDPSVALLQQAQGQWVQVGRTEVVRSSLHPVFSKVFTVDYYFEEVQRLRFEVYDTHGPSGFSCQEDDFLGGMECTLGQPAQKWLLQVVMRVSVDVLGPAGHCAKHFLCCTESSHLARTGPSFLLRYDDLCLPWATAGAVRWWTCRGGHTQGWQIVAQKKVTRPLLLKFGRNAGKSTITVIAEDISGNNGYVELSFRARKLDDKDLFSKSDPFLELYRVNDDQGLQLVYRTEVVKNNLNPVWEAFKVSLSSLCSCEETRPLKCLVWDYDSRGKHDFIGEFSTTFEEMQKAFEEGQAQWDCVNPKYKQKRRSYKNSGVVVLADLKFHRVYSFLDYIMGGCQIHFTVAIDFTASNGDPRNSCSLHYINPYQPNEYLKALVSVGEICQDYDSDKRFSALGFGARIPPKYEVSHDFAINFNPEDDECEGIQGVVEAYQNCLPRVQLYGPTNVAPIISKVARVAAAEESTGKASQYYILLILTDGVVTDMADTREAIVRASRLPMSIIIVGVGNADFTDMQVLDGDDGVLRSPRGEPALRDIVQFVPFRELKNASPAALAKCVLAEVPKQVVEYYSHRGLPPRSLGVPAGEASPGCTP
# What was measured:
# [1] = test system: shallow cavities in beagle dog premolars; assay: Shallow cavity tooth defect model in beagle dog premolars; format: in vivo
# From the text: (§1) For in vivo canine studies, a total of 10 beagle dogs (2 y) were operated on, with all of them reaching end points. For each animal, 4 to 6 maxillary premolars and 6 mandibular premolars were used, depending on their periodontal conditions. Control and experimental groups were allocated to each and every animal so that possible biases resulting from individual nutritional, behavioral, and pulpal conditions could be eliminated. Compared to small animal studies, the sample size was necessarily limited for feasibility and ethical reasons. While the exact numbers for each experiment are included in the figure legends, at least 6 premolars and up to 12 premolars were assigned to every control and experimental group. Investigators performing beagle operation and sampling were not blinded, while investigators involved in histological analysis were blinded. All experiments using animals followed protocols approved by the Institutional Animal Care and Use Committee of Seoul National University (SNU-180416-2-1 and SNU-171020-5-2).
# (§2) Beagle dogs of 1–2 years of age were used for three independent experiments. After disinfecting the cervical regions of the maxillary and mandibular premolars with 0.5% chlorhexidine, dish-shaped class V cavities were prepared using a #4 high-speed round bur (head diameter, 1.4 mm). […]
# [2] = test system: deep cavities in beagle dog premolars; assay: Deep cavity tooth defect model in beagle dog premolars; format: in vivo
# From the text: as §1, §2
# [3] = test system: dental pulp cells under deep cavities; assay: TUNEL assay of dental pulp at deep cavity preparation areas; format: in vivo, beagle dog; conditions: 3 weeks, versus GI cement only control
# Experimental: Apoptotic cells were detected using the TUNEL kit (Roche Biochemicals, Basel, Switzerland), according to the manufacturer’s instructions. Endogenous peroxidase activity within the tissue sections were blocked in 3% H2O2 prior to enzymatic labeling. To yield a colored reaction product, enzymatically labeled cells were then incubated with 3,3-diaminobenzidine tetrahydrochloride. Visualization was achieved by incubating the sections with diaminobenzidine tetrahydrochloride (DAB), and subsequent counter-staining with hematoxylin. Positive TUNEL signals were converted to red color using IHC Profiler of Image J software (National Institute of Health, Gaithersburg, MD, USA).
# [4] = test system: cavities in beagle dog premolars; assay: Characterisation of CPNE7-induced hard tissue (SEM, Masson's trichrome, alternative filling materials); format: in vivo
# Experimental: Beagle dogs of 1–2 years of age were used for three independent experiments. After disinfecting the cervical regions of the maxillary and mandibular premolars with 0.5% chlorhexidine, dish-shaped class V cavities were prepared using a #4 high-speed round bur (head diameter, 1.4 mm). For shallow cavities, the drilling stopped when half to two-thirds of the bur head penetrated the tooth structure, depending on the tooth size. For deep cavities, the drilling stopped when the color of the remaining dentin looked reddish gray. The smear layer was removed with a gentle application of 17% EDTA. After sufficient irrigation, surgical sites were dried with a cotton pellet. For CPNE7 function analysis, the cavities were either untreated or treated with a topical application of rCPNE7 (recombinant CPNE7) protein (1 µg total rCPNE7 per tooth in a buffer containing 25 mM Tris-HCl, 100 mM glycine, and 10% glycerol). After a brief incubation for diffusion, the cavities were then filled with either glass ionomer (GI) cement (GC; Fuji II LC; GC America Inc., Alsip, IL, USA), composite resin (Filtek Supreme Ultra Flowable Restorative; 3 M, MN, USA) or intermediate restorative material (IRM; Dentsply Sirona, New York, PA, USA). For peptide function analysis, an HIV-1 Tat-derived cell-penetrating peptide was used as control. In addition to the abovementioned shallow and deep cavity models, complete pulp exposure was performed for peptide analysis. For complete pulp exposure, the drilling stopped when a pin-point exposure of the pulp was generated and bleeding was evident. Cotton pellets soaked in saline were used for bleeding control. Cavities with exposed pulps were divided into two groups for the experiment. Group 1 received only GI cement filling, group 2 received GI cement filling after MTA (ProRoot MTA; Dentsply Sirona, New York, PA, USA) sealing, and group 3 received GI cement filling after MTA mixed with CPNE7-derived peptide (Cpne7-DP) sealing. […]
# [5] = beagle dog premolars, topical application, then cavity filling, H&E histology after 3 weeks
# [6] = six weeks instead of three, H&E, n = 6
molecule,measurement,setting,value
B1,New hard tissue formation beneath shallow cavity,[1]; [5],newly generated tertiary dentin retaining the physiologic tubule structure
same,"Thickness of newly formed tubular dentin, shallow cavity",[1]; [6],increased significantly
same,New hard tissue formation beneath deep cavity,[2]; [5],newly generated tertiary dentin was present beneath the remaining dentin
same,"Thickness of newly formed tubular dentin, deep cavity",[2]; [6],increased significantly
same,Cell death under the newly generated dentin (TUNEL),[3],significantly reduced cell death
same,Collagen content of newly generated dentin area,[4]; Masson's trichrome staining,higher collagen content
same,Hard tissue formation with alternative cavity filling material,"[4]; composite resin or zinc oxide-eugenol (ZOE) filling, H&E after six weeks, n = 6",formation of tubular dentin
same,Presence of dentinal tubules in the newly mineralized area,"[4]; scanning electron microscopy, along the entire length of predentin",clear tubule structure
